Test results as given in patent publication US20060121580A1.

Target: SARS-CoV preparation (Frankfurt 1 strain)
Assay: phage ELISA on coated SARS-CoV preparation, plate 4 (no phage antibody 0.051)

Binder	OD492 nm
SC03-054 (scFv) scFv: AMAEVQLVQSGGGVVQPGRSLRLSCAASGFTFSSYAMHWVRQAPGKGLEYVSGISSNGGSTYYANSVKGRFTISRDNSKNTLYLQMGSLRAEDMAVYYCARTTNRAFDIWGQGTMVTVSSGTGGSGGTGSGTGGSTDIQLTQSPDSLAVSLGERATINCKSSQSVLYSSNNKNYLAWYQQKPGQPPKLLIYWASTRESGVPDRFSGGGSGTDFTLTISSLQAEDVAVYYCQQYYSTPYSFGQGTKVEIKRAA	0.428 OD492 nm
SC03-031 (scFv) scFv: AMAQVQLVQSGADVKKPGSSVKVSCEASGGTFSSYAISWVRQAPGQGLEWMGRIIPILGITNYAQKFQGRVTITADKSTGTGNMELSSLRSEDTAVYYCARESGGGYDNHFDYWGQGTLVTVSSGTGGSGGTGSGTGGSTQSVLTQPPSASGTPGQRVTISCSGGSSNIGSNTVNWYQQLPGTAPKLVIYANNQRPSGVPDRFSASKSGTSASLAISGLQSEDEADYYCAAWDDSLTGGVFGGGTQLTVLSAA	0.635 OD492 nm
SC03-033 (scFv) scFv: AMAQVQLVQSGTEVKKPGESLKISCKGSGYGFITYWIGWVRQMPGKGLEWMGIIYPGDSETRYSPSFQGQVTISADKSINTAYLQWSSLKASDTAIYYCAGGSGISTPMDVWGQGTTVTVSSGTGGSGGTGSGTGGSTDVVMTQSPDSLAVSLGERATINCKTSHNIFSRSNNKDYLAWYQQKPGQPPRLLIYWASTRASGVPERFSGSGSGTDFSLTISSLQAEDVAVYYCQQYYSSPMYSFGQGTKVEIKRAA	0.288 OD492 nm
SC03-037 (scFv) scFv: AMAKVQLVQSGGGLIQPGGSLRLSCAASGFTVSSNYMSWVRQAPGKGLEWVSIVFSGGSTYYADSVKGRFTISRDNSKNTLYLQMNSLRAEDTAVYYCARDAHRGFGMDVWGQGTTVTVSSGTGGSGGTGSGTGGSTSSELTQDPAVSVALGQTVRITCQGDSLRSYYASWYQQKPGQAPVLVIYGKNNRPSGIPDRFSGSSSGNTASLTITGAQAEDEADYYCNGRDSSGNHWVFGGGTKLTVLGAA	0.287 OD492 nm
SC03-038 (scFv) scFv: AMAEVQLVQSGGGLIQPGGSLRLSCAASGFTVSSNYMSWVRQAPGKGLEWVSIVFSGGSTYYADSVKGRFTISRDNSKNTLYLQMNSLRAEDTAVYYCARDAHRGFGMDVWGQGTTVTVSSGTGGSGGTGSGTGGSTSSELTQDPAVSVALGQTVRITCQGDSLRSYYASWYQQKPGQAPVLVIYGKNNRPSGIPDRFSGSSSGDTASLTITGAQAEDEADYYCNSRDSSGNHWVFGGGTKLTVLGAA	0.314 OD492 nm
SC03-040 (scFv) scFv: AMAQVQLVQSGGGLVQPGGSLRLSCAASGFTFSSYAMHWVRQAPGKGLEYVSGISSNGGSTYYANSVKGRFTISRDNSKNTLYLQMGSLRAEDMAVYYCARTTNRAFDIWGQGTMVTVSSGTGGSGGTGSGTGGSTDIQMTQSPDSLAVSLGERATINCRSSQSVLYSSNNKNYLAWYQQKPGQPPKLLIYWASTRESGVPDRFSGSGSGTDFTLTISSLQAEDVAVYYCQQYYSSPYSFGQGTKLEIKRAA	0.616 OD492 nm

Target: SARS-CoV preparation (Frankfurt 1 strain)
Assay: phage ELISA on coated SARS-CoV preparation, plate 3 (no phage antibody 0.054)

Binder	OD492 nm
SC03-046 (scFv) scFv: AMAEVQLVQSGGGLVQPGGSLRLSCAASGFTFSSYAMHWVRQAPGKGLEYVSGISSNGGSTYYANSVKGRFTISRDNSKNTLYLQMGSLRAEDMAVYYCARTTNRAFDIWGQGTMVTVSSGTGGSGGTGSGTGGSTDVVMTQSPDSLAVSLGERATINCKSSQSVLYSSNNKNYLAWYQQKPGQPPKLLIYWASTRESGVPDRFSGSGSGTDFSLTISSLQAEDVAVYYCQQYYSPPYTFGPGTKVEIKRAA	1.9 OD492 nm
SC03-051 (scFv) scFv: AMAQVQLVQSGTEVKKPGESLKISCKGSGYGFITYWIGWVRQMPGKGLEWMGIIYPGDSETRYSPSFQGQVTISADKSINTAYLQWSSLKASDTAIYYCAGGSGISTPMDVWGQGTTVTVSSGTGGSGGTGSGTGGSTDIQMTQSPDSLAVSLGERATINCKSGQSILYSSNDKNYLAWYQQKPGQPPKLLIYWASTRESGVPDRFSGSGSGTDFTLTISSLQAEDVAVYYCQQYYSTPYTFGQGTKVEIKRAA	0.602 OD492 nm
SC03-055 (scFv) scFv: AMAQVQLQQWGAGLLKPSETLSLTCAVYGGSFSGFYWSWIRQPPGKGLEWIGEINHSGSTNYNPSLKSRVTISADTSKNQFSLKLSSVTAADTAVYYCARRVEVVEYQLLRPRYKSWFDPWGQGTLVTVSSGTGGSGGTGSGTGGSTQSVLTQPPSVSGAPGQRVSISCSGSGANGGTDPVSWYQKFPGTAPHLLIYDNNKRPSGIPDRFSGSKSGASATLDITGLQTGDEADYYCGAWDPSLSGYVFGTGTQLTVLSAA	0.608 OD492 nm
SC03-057 (scFv) scFv: AMAQVQLVQSGAEVKKPGSSVKVSCKASGGTFSRYAISWVRQAPGQGLEWMGRINPILNLTNYAQKFQGRVTITADKSTSTAYMEMSSLRSEDTAIYYCASPDIVVAGHASPPHYTMDVWGQGTTVTVSSGTGGSGGTGSGTGGSTDIQMTQSPSSLSASVGDRVTITCRASQGIRNDLGWYQQKPGKAPNLLIYQASALQSGVPSRFSGSESGAEFTLTISSLHPDDFATYYCQQYHDFPITFGQGTRLEIKRAA	1.19 OD492 nm
SC03-034 (scFv) scFv: AMAEVQLVQSGAEVKKPGESLKISCKGSGYGFITYWIGWVRQMPGKGLEWMGIIYPGDSETRYSPSFQGQVTISADKSINTAYLQWSSLKASDTAIYYCAGGSGISTPMDVWGQGTTVTVSSGTGGSGGTGSGTGGSTDVVMTQSPDSLAVSLGERATINCKSSQSILNRSNNKNYLAWYQQKPGQPPKLLIYWASTRESGVPDRFSGSGSGTDFNLTISSLQAEDVAVYYCQQYNNWPLTFGGGTKVDIKRAA	0.802 OD492 nm
SC03-036 (scFv) scFv: AMAEVQLVQSGTEVKKPGESLKISCKGSGYGFITYWIGWVRQMPGKGLEWMGIIYPGDSETRYSPSFQGQVTISADKSINTAYLQWSSLKASDTAIYYCAGGSGISTPMDVWGQGTTVTVSSGTGGSGGTGSGTGGSTDIQMTQSPDSLAVSLGERATINCKSSQSVLHSPNNKNYLAWYQQKPGQPPKLLIYWASTRESGVPDRFSGSGSGTDFTLTISSLQAEDVAVYYCQQYYSTNSFGQGTKLEIKRAA	0.24 OD492 nm
SC03-039 (scFv) scFv: AMAEVQLVESGGGLVQPGGSLRLSCAASGFTFSSYAMSWVRQAPGKGLEWVSVIYSGGTSTYYADSVKGRFTISRDNSKNTLYLQMNSLRAEDTAVYFCAKGSKWNDVGGGDYWGQGTLVTVSSGTGGSGGTGSGTGGSTNFMLTQPHSVSESPGKTVTISCAGSSGSIASNYVQWYQQRPGSAPTTVIYEDNQRPSGVPDRFSGSIDSSSNSASLTISGLKTEDEADYYCQSYDGYLWIFGGGTKLTVLGAA	0.851 OD492 nm
SC03-043 (scFv) scFv: AMAQVQLVQSGGGLVQPGGSLRLSCAASGFTFSSYAMHWVRQAPGKGLEYVSGISSNGGSTYYANSVKGRFTISRDNSKNTLYLQMGSLRAEDMAVYYCARTTNRAFDIWGQGTMVTVSSGTGGSGGTGSGTGGSTDIQLTQSPDSLAVSLGERATINCKSSQSVLYRSNNKNYLAWYQQKPGQPPKLLIYWASTRESGVSERFSGSGSGTDFTLTISSLQAEDVAVYYCQQYYSTPYSFGQGTKLEIKRAA	1.27 OD492 nm
